According to the supplement of paper PMC9112550, “Optimization of the antimicrobial peptide Bac7 by deep mutational scanning” (BMC Biology, 2022):

Test system: Escherichia coli TOP10
Assay: shrunken log2 fold change of peptide-encoding DNA abundance (4.5 h post-induction vs induction); higher = less antimicrobial activity (less host growth inhibition)
Conditions: time post-induction: 4.5 h; library: site-saturation at positions 5, 18, 19, 20
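Further: peptides expressed intracellularly from a pBAD plasmid library in pooled LB shake-flask culture, induced with 0.3% L-arabinose, DNA abundance read by NGS, three biological replicates, DESeq2 with apeglm shrinkage.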

For RRIRKRPPRLPRPRPRPDGWPRP, the “shrunken log2 fold change” value was 0.152.

In the case of RRIRARPPRLPRPRPRPVGTPRP, the “shrunken log2 fold change” value is reported as 0.441.

RRIRQRPPRLPRPRPRPQRLPRP was tested, and the “shrunken log2 fold change” value was -0.0136.

For RRIRFRPPRLPRPRPRPDEHPRP, the “shrunken log2 fold change” value was -0.0688.

RRIRKRPPRLPRPRPRPKPRPRP was tested, and the “shrunken log2 fold change” value was 1.06.

RRIRLRPPRLPRPRPRPFGFPRP was tested, and the “shrunken log2 fold change” value was -0.15.

With RRIRLRPPRLPRPRPRPYQEPRP the “shrunken log2 fold change” value was -0.46.

For RRIRARPPRLPRPRPRPMVIPRP, the “shrunken log2 fold change” value was 0.0235.

For RRIRIRPPRLPRPRPRPNETPRP, the “shrunken log2 fold change” value was -0.0216.

RRIRFRPPRLPRPRPRPPAEPRP was tested, and the “shrunken log2 fold change” value was 0.606.

With RRIRPRPPRLPRPRPRPREKPRP the “shrunken log2 fold change” value was 0.489.

RRIRRRPPRLPRPRPRPKQMPRP was tested, and the “shrunken log2 fold change” value was 0.29.

RRIRARPPRLPRPRPRPVVCPRP was tested, and the “shrunken log2 fold change” value was 0.224.

For RRIRDRPPRLPRPRPRPDSNPRP, the “shrunken log2 fold change” value was 0.205.

For RRIRHRPPRLPRPRPRPQLRPRP, the “shrunken log2 fold change” value was -0.343.

With RRIRCRPPRLPRPRPRPTDNPRP the “shrunken log2 fold change” value was -0.58.

In the case of RRIRDRPPRLPRPRPRPAPTPRP, the “shrunken log2 fold change” value is reported as 0.684.

With RRIRRRPPRLPRPRPRPWALPRP the “shrunken log2 fold change” value was -0.0259.

With RRIRQRPPRLPRPRPRPHLYPRP the “shrunken log2 fold change” value was -0.129.

With RRIRCRPPRLPRPRPRPIVKPRP the “shrunken log2 fold change” value was 0.0118.

RRIRMRPPRLPRPRPRPECPPRP was tested, and the “shrunken log2 fold change” value was 0.43.

With RRIRQRPPRLPRPRPRPHLWPRP the “shrunken log2 fold change” value was 0.0824.

For RRIRTRPPRLPRPRPRPMEKPRP, the “shrunken log2 fold change” value was -0.00136.

In the case of RRIRARPPRLPRPRPRPRFLPRP, the “shrunken log2 fold change” value is reported as 0.371.

In the case of RRIRHRPPRLPRPRPRPHRHPRP, the “shrunken log2 fold change” value is reported as -0.2.

With RRIRPRPPRLPRPRPRPCFMPRP the “shrunken log2 fold change” value was -0.269.

In the case of RRIRPRPPRLPRPRPRPCWVPRP, the “shrunken log2 fold change” value is reported as 0.143.

In the case of RRIRARPPRLPRPRPRPHYRPRP, the “shrunken log2 fold change” value is reported as 0.0684.

In the case of RRIRCRPPRLPRPRPRPFCHPRP, the “shrunken log2 fold change” value is reported as -0.142.

RRIRARPPRLPRPRPRPPGPPRP was tested, and the “shrunken log2 fold change” value was 0.703.

With RRIRWRPPRLPRPRPRPRTEPRP the “shrunken log2 fold change” value was 0.225.

In the case of RRIRRRPPRLPRPRPRPYDPPRP, the “shrunken log2 fold change” value is reported as 0.0185.

RRIRKRPPRLPRPRPRPYYYPRP was tested, and the “shrunken log2 fold change” value was -0.704.

With RRIRIRPPRLPRPRPRPEIYPRP the “shrunken log2 fold change” value was -4.67e-05.

RRIRCRPPRLPRPRPRPDEWPRP was tested, and the “shrunken log2 fold change” value was -0.0372.

In the case of RRIRDRPPRLPRPRPRPCNHPRP, the “shrunken log2 fold change” value is reported as -0.218.

In the case of RRIRQRPPRLPRPRPRPKHYPRP, the “shrunken log2 fold change” value is reported as -0.223.

With RRIRSRPPRLPRPRPRPDINPRP the “shrunken log2 fold change” value was -0.253.

With RRIRDRPPRLPRPRPRPPMTPRP the “shrunken log2 fold change” value was 0.425.

In the case of RRIRMRPPRLPRPRPRPANAPRP, the “shrunken log2 fold change” value is reported as 0.442.

With RRIRGRPPRLPRPRPRPTYLPRP the “shrunken log2 fold change” value was 0.132.

In the case of RRIRRRPPRLPRPRPRPYYKPRP, the “shrunken log2 fold change” value is reported as -0.677.

For RRIRIRPPRLPRPRPRPVDQPRP, the “shrunken log2 fold change” value was -0.0969.

For RRIRRRPPRLPRPRPRPIFYPRP, the “shrunken log2 fold change” value was -0.0503.

For RRIRLRPPRLPRPRPRPERNPRP, the “shrunken log2 fold change” value was 0.129.

For RRIRFRPPRLPRPRPRPKNSPRP, the “shrunken log2 fold change” value was -0.533.

In the case of RRIRPRPPRLPRPRPRPYMYPRP, the “shrunken log2 fold change” value is reported as -0.634.

For RRIRNRPPRLPRPRPRPIFLPRP, the “shrunken log2 fold change” value was -0.182.

With RRIRPRPPRLPRPRPRPYRLPRP the “shrunken log2 fold change” value was -0.136.

RRIRFRPPRLPRPRPRPHMVPRP was tested, and the “shrunken log2 fold change” value was -0.809.
